In IntAct's records for PubMed 21697476:

B1: Replication and transcription activator (Epstein-Barr virus (strain B95-8) (HHV-4)), P03209 (parent)
chain: MRPKKDGLEDFLRLTPEIKKQLGSLVSDYCNVLNKEFTAGSVEITLRSYKICKAFINEAKAHGREWGGLMATLNICNFWAILRNNRVRRRAENAGNDACSIACPIVMRYVLDHLIVVTDRFFIQAPSNRVMIPATIGTAMYKLLKHSRVRAYTYSKVLGVDRAAIMASGKQVVEHLNRMEKEGLLSSKFKAFCKWVFTYPVLEEMFQTMVSSKTGHLTDDVKDVRALIKTLPRASYSSHAGQRSYVSGVLPACLLSTKSKAVETPILVSGADRMDEELMGNDGGASHTEARYSESGQFHAFTDELESLPSPTMPLKPGAQSADCGDSSSSSSDSGNSDTEQSEREEARAEAPRLRAPKSRRTSRPNRGQTPCPSNAAEPEQPWIAAVHQESDERPIFPHPSKPTFLPPVKRKKGLRDSREGMFLPKPEAGSAISDVFEGREVCQPKRIRPFHPPGSPWANRPLPASLAPTPTGPVHEPVGSLTPAPVPQPLDPAPAVTPEASHLLEDPDEETSQAVKALREMADTVIPQKEEAAICGQMDLSHPPPRGHLDELTTTLESMTEDLNLDSPLTPELNEILDTFLNDECLLHAMHISTGLSIFDTSLF

Variants of: B1
Conditions: with po2f1_human POU2F1, P14859
po2f1_human POU2F1, P14859, sequence (P14859 whole entry): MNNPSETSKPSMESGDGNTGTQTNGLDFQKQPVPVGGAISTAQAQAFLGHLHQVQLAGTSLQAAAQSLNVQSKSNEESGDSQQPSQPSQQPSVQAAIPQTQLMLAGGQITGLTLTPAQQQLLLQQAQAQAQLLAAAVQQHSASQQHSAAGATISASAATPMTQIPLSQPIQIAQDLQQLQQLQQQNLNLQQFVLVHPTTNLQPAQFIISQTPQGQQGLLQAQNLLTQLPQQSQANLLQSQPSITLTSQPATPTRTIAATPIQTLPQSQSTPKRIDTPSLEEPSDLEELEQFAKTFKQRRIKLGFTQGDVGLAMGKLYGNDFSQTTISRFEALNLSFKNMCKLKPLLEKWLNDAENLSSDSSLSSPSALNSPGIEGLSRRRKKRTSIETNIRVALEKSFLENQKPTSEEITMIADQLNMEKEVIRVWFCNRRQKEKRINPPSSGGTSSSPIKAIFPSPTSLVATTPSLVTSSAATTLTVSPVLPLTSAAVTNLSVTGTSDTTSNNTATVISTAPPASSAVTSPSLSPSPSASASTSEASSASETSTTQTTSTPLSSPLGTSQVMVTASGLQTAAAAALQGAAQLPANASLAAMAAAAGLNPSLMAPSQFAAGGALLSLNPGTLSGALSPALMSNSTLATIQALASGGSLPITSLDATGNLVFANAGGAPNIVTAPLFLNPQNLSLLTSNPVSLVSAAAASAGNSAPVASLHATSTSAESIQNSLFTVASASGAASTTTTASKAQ

| Variant | effect of a mutation on the interaction |
| --- | --- |
| M140A | decreasing interaction |
